Earlier results, collected in patent publication US10870689B2, “ApoM-Fc fusion proteins, complexes thereof with sphingosine 1-phosphate (S1P), and methods for treating vascular and non-vascular diseases” (Children's Medical Center Corporation, priority 2016, dated 2020).

Experiments:
[1] = Sevvana et al. 2010; read-out: relative affinity for S1P
[2] = not associated with HDL; Faber et al. 2006

| Kd [1] | Molecule | in vivo half-life [2] |
| --- | --- | --- |
| ~1000 nM | recombinant ApoM: Bacterially expressed recombinant human ApoM (protein, UniProt O95445 1-188, looked up) Apolipoprotein M: MFHQIWAALLYFYGIILNSIYQCPEHSQLTTLGVDGKEFPEVHLGQWYFIAGAAPTKEELATFDPVDNIVFNMAAGSAPMQLHLRATIRMKDGLCVPRKWIYHLTEGSTDLRTEGRPDMKTELFSSSCPGGIMLNETGQGYQRFLLYNRSPHPPEKCVEEFKSLTSCLDSKAFLLTPRNQEACELSNN | – |
| – | Free ApoM: ApoM that is not associated with HDL (protein, UniProt O95445 1-188, looked up) Apolipoprotein M: MFHQIWAALLYFYGIILNSIYQCPEHSQLTTLGVDGKEFPEVHLGQWYFIAGAAPTKEELATFDPVDNIVFNMAAGSAPMQLHLRATIRMKDGLCVPRKWIYHLTEGSTDLRTEGRPDMKTELFSSSCPGGIMLNETGQGYQRFLLYNRSPHPPEKCVEEFKSLTSCLDSKAFLLTPRNQEACELSNN | less than 15 minutes |
